Biological target: T1, betaKlotho-expressing BaF3 cells (Mus musculus, UniProt Q99N32)
T1 construct: the entire-length cDNA of mouse betaKlotho was cloned into an animal cell expression vector; expressed in transfected cells; host or cells: BaF3 (mouse pro-B) cells
T1 sequence (Q99N32 1-1043): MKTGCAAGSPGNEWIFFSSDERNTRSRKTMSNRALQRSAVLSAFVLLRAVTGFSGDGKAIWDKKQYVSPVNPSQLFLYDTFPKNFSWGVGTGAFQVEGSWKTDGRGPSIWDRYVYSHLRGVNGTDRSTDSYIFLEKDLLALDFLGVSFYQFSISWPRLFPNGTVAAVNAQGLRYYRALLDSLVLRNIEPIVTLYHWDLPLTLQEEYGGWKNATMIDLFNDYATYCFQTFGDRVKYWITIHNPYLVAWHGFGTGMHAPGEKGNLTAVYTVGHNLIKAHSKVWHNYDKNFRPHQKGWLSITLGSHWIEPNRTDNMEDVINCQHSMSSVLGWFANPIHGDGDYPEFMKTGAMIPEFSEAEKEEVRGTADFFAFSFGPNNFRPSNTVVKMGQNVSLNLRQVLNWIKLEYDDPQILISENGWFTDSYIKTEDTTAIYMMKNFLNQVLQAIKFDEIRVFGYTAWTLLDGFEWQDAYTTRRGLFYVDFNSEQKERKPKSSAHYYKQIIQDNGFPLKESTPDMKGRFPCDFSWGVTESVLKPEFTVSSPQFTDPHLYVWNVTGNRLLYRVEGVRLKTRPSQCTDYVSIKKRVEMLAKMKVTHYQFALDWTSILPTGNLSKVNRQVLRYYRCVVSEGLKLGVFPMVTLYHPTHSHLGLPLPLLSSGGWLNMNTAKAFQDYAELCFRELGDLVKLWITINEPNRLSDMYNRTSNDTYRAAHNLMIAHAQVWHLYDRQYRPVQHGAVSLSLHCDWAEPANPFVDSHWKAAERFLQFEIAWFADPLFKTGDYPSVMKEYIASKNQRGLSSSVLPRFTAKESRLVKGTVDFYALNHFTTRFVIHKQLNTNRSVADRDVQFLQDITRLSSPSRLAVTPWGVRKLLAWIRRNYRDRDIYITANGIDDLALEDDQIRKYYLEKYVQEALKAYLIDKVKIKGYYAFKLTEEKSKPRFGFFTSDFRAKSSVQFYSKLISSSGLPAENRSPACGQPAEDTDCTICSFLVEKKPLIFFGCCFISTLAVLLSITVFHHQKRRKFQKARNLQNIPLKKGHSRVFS
Test: DNA synthesis (thymidine incorporation) in BaF3 cells expressing only betaKlotho
Assay type: cell-based
Settings: presence or absence of heparin
Method: A commonly used measurement method is a cell growth stimulating activity measurement method described in Ornitz, D. M., Xu, J., Colvin, J. S., McEwen, D. G., MacArthur, C. A., Coulier, F., Gao, G. and Goldfarb, M. (1996) Receptor specificity of the fibroblast growth factor family. J Biol Chem, 271, 15292-15297. The summary thereof is as follows. FGF used as a measurement target is added to a culture solution containing a cultured cell having an FGF receptor on the surface thereof, and the obtained mixture is cultured for a certain period of time. Thereafter, a labeled thymidine is added to the culture solution, followed by further culture for a certain period of time. By measuring the amount of the labeled thymidine incorporated into polymeric DNA during the culture, the degree of FGF to activate DNA synthesis is evaluated. (In the present invention as well, this method was adopted when the activity of FGF21 was measured in Examples 4, 5, 6, 8, 9, and 10.) […]
Immediately after inoculation, BaF3 cells that had expressed each clone and only FGFR1c were stimulated by addition of FGF21 (open bar) or PBS (filled bar) used as a control in the presence of heparin, and they were then cultured for 42 hours. […] Thereafter, the amount of thymidine incorporated into the cells was measured, so as to evaluate DNA synthesis. […]

B1: FGF21: fibroblast growth factor 21; mouse-derived protein used in Examples 1-7 and 10-13 (protein)
chain: AYPIPDSSPLLQFGGQVRQRYLYTDDDQDTEAHLEIREDGTVVGAAHRSPESLLELKALKPGVIQILGVKASRFLCQQPDGALYGSPHFDPEACSFRELLLEDGYNVYQSEAHGLPLRLPQKDSPNQDATSWGPVRFLPMPGLLHEPQDQAGFLPPEPPDVGSSDPLSMVEPLQGRSPSYAS
With B1 the “DNA synthesis (thymidine incorporated into the cells)” value was “did not react with FGF21”.

— US8697369B2, “Method for screening a test substance for activating a receptor associated with FGF 21 activity” (National Institute of Advanced Industrial Science and …, priority 2007, dated 2014)
